From the supplement of paper PMC9170038

Tests used:
[1] = test system: MS2 coat protein; experiment: apparent KD of MS2 coat protein, switch ON state; designed switch direction (-1 OFF switch, 1 ON switch): -1; higher = weaker reporter binding; details: FMN input: 0 or 200 uM; Eterna round: R93 (includes R88 designs)
In short: (§1)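 Normalised binding curves from single clusters were fitted, and the median fit for each design is given as apparent KD. The clusters held designed RNA switches transcribed on-chip from Illumina sequencing clusters. These were titrated with SNAP-549-labelled MS2 coat protein (twofold steps from 0.7 or 1.5 nM to 3 µM, 0.8–1.5 h to 10–20 min per step) in 100 mM Tris-HCl pH 7.5, 80 mM KCl, 4 mM MgCl2, without or with constant ligand.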

[2] = test system: MS2 coat protein; experiment: apparent KD of MS2 coat protein, switch OFF state (with FMN for OFF switches, without FMN for ON switches); designed switch direction (-1 OFF switch, 1 ON switch): -1; higher = weaker reporter binding; details: FMN input: 0 or 200 uM; Eterna round: R93 (includes R88 designs)
In short: as §1

Sequence	apparent KD of MS2 coat protein [1]	apparent KD of MS2 coat protein [2]
AAAGAGCAAGGAUAUACAUGAGGAUCACCCAUGUAUGGAGAUACAAAACAAAAGAUCAGUAGAAGGUGCGGAUG [Rageleor]	20.3 nM	26.3 nM
AAAGAUACAGGAUAUACAUGAGGAUCACCCAUGUGGAACCAAAAAUGGGAAAAAGAAAGUAGAAGGGUAUAAAA [Ex 3 May 37]	38.8 nM	35.7 nM
AAAGAUACAGGAUAUACAUGAGGAUCACCCAUGUUAGACCAAAAAUGGGAAAAAGAAAGUAGAAGGGUAUAAAA [Ex 3 May 35]	26 nM	54.5 nM
AAAGAUGGAGGAUAUACAUGAGGAUCACCCAUGUGGAAAAAAAAUUGGGAAAAAGAAAGUAGAAGGCCAAAAAA [Ex 3 May 42]	48.1 nM	155 nM
AAAGGACAAGGAUAUACAUGAGGAUCACCCAUGUAAAAAACAUAAUAAAAGAACUUAUGUAGAAGGUGUCCAAA [69%, Moding Meechl, 8]	38.3 nM	177 nM
AAAGGACAUGAGGAUCACCCAUGUGAGGAUAUGCUCUACGAACGAAUACACAUGAGAAGCAGAAGGCACAUAAG [try 1]	43.8 nM	142 nM
AAAGGAGCAGGAUAUACAUGAGGAUCACCCAUGUAAAAAACAUAAUAAAAGAACUUAUGUAGAAGGGCUCCAAA [69%, Moding Meechl, 10]	48.2 nM	228 nM
AAAUGACAUGAGGAUCACCCAUGUCAGGAUAUGACUUGAAAAUAAAAUAAAAAACAUGUCAGAAGGGACAUGAA [Design 49: Sub-opt EB]	13.5 nM	12.4 nM
AACAAACAUGAGGAUCACCCAUGUGAGGAUAUACAAACAAACAAAAACAAAACAAAAAGUAGAAGGCACAACAA [JR_Exc001_Sub002]	19.4 nM	18.9 nM
AACAAACAUGAGGAUCACCCAUGUGAGGAUAUGAAAAUAAAUAAAAAUAAAAUAAAAAUCAGAAGGCACAACAA [JR_Exc001_Sub003]	25.6 nM	28.2 nM
AACAAGACAGGAUAUACAUGAGGAUCACCCAUGUCACAACAAAGCAGCGCAACACAAAGUAGAAGGGUCAUGAA [Ruby 12]	45.1 nM	46.9 nM
AACAGUACAGGAUAUACAUGAGGAUCACCCAUGUGAAAAUUAAGUGGCGAACCACAGUGUAGAAGGGUACUGGA [Mat - Exclusion 3 - Eli mod - D51]	81.8 nM	33.5 nM
AACAGUACAGGAUAUACAUGAGGAUCACCCAUGUGAAAAUUAAGUGGGAAACCACAGUGUAGAAGGGUACUGAA [Mat - Exclusion 3 - Eli mod - D55]	120 nM	93 nM
AACAGUACAGGAUAUACAUGAGGAUCACCCAUGUGAAGAUUAAGUGGAGUACCACAAAGUAGAAGGGUACUGGA [Ruby 89]	28.1 nM	101 nM
AACAGUACAGGAUAUACAUGAGGAUCACCCAUGUGAGAAUUAAGUGGAGUACCACAAAGUAGAAGGGUACUGGA [Mat - Exclusion 3 - JL mod - D4]	28.9 nM	202 nM
AACAGUACAGGAUAUACAUGAGGAUCACCCAUGUGAGACUUAAAAGGCGUACCUAAAAGUAGAAGGGUACUGGA [JL Maslow Revisted mod 21]	56.1 nM	176 nM
AACAGUACAGGAUAUACAUGAGGAUCACCCAUGUGAGUUUUAAAAGGCGUACCUAAAAGUAGAAGGGUACUGGA [JL Maslow Revisted mod 20]	24.3 nM	44.2 nM
AACAGUACAGGAUAUACAUGAGGAUCACCCAUGUGGGAGAAAAGAUCGAGAGAUCAAUGUAGAAGGGUACUGGA [JL In the Red 07]	115 nM	80.1 nM
AACAUGUCAGGAUAUGUAGUAAAAAGUGAUCCUCAUAAACUACAGAAGGGACAUGAGGAUCACCCAUGUAAAAA [Ex4: 930]	27.9 nM	21.3 nM
AACAUGUCAGGAUAUUAAAGAAAAGAAAAGAAAGAAAAGAAUAAGAAGGGACAUGAGGAUCACCCAUGUAAGAA [EteRNA is fun!]	72.1 nM	37 nM
AACGUACAUGAGGAUCACCCAUGUUAGGAUAUAUAUACAGGAAAACAUUCUAAUGUAAAUAGAAGGAACGAAAA [Bilbo Confounded 21 - Jieux - Exclusion 1]	17.1 nM	10.8 nM
AACUAGUCAGGAUAUACGAACAUGUCAAAAAACAUAAAGGGACAUGAGGAUCACCCAUGUAGAAGGGACUAGCA [74%, Web mod - With 4 less G's]	161 nM	262 nM

Sequence	apparent KD of MS2 coat protein [1]	apparent KD of MS2 coat protein [2]
AACUAGUCAGGAUAUGCGAACAGAUAAUAAGCUACACAAAAGCAGAAGGGACAUGAGGAUCACCCAUGUAAAUA [JR_Exc004_Sub502]	39.3 nM	33 nM
AACUGACAUGAGGAUCACCCAUGUCAGGAUAUGACUUCGAAAAAAAAAAAAAACGAUGUCAGAAGGGACAUGGA [Design 66: Sub-opt N]	17.5 nM	27.2 nM
AACUGACAUGAGGAUCACCCAUGUCAGGAUAUGAUUUGACGAAAAAAAAAAAGUCAUAUCAGAAGGGACAUGGG [Design 82: Sub-opt V]	19 nM	17.6 nM
AAGAAACAUGAGGAUCACCCAUGUAAGGAUAUCUAAAAGAAAAGAAAAGAAAGAAGAAAGAGAAGGUACAAAGG [Nebhetepre Mentuhotep II]	87.3 nM	81.3 nM
AAGAAACAUGAGGAUCACCCAUGUGAGGAUAUAGAAAAGAAAAGAAAAGAAAGAAGAACUAGAAGGCACAAAGG [Neferkare (IV) Khendu]	31.1 nM	28.8 nM
AAGAACGCAGGAUAUACAAAAUAAAAGAAAAGAAAGAAAGAACAUGAGGAUCACCCAUGUAGAAGGGCGAAGAA [Sewadjkare]	52.2 nM	49.5 nM
AAGAACGCAGGAUAUAUUAAGGGACAAAGAAGGAAGAAUAAACAUGAGGAUCACCCAUGUAGAAGGGCGAAGAA [JR_Exclusion2_Sub4]	49.4 nM	43.5 nM
AAGAACGGAGGAUAUACAAAAUAAAAGAAAAGAAAGAAAGAACAUGAGGAUCACCCAUGUAGAAGGCUGAAGAA [Merneferre Ay I]	35.7 nM	35.2 nM
AAGAACGUAGGAUAUACAUGAGGAUCACCCAUGUAAAAGAAAGAAAGGGAAAAGAAAAGUAGAAGGACGAAGAA [Hedjkheperre-setepenre Shoshenq I]	29.7 nM	77.9 nM
AAGAACGUAGGAUAUACAUGAGGAUCACCCAUGUAAAAGAAAGAAGGGAAAGAGAAAAGUAGAAGGACGAAGAA [Wahkare Bakenrenef]	21.6 nM	34.4 nM
AAGAACUCAGGAUAUACAUGAGGAUCACCCAUGUAAAAGAAAGAAAGGGAAAAGAAAAGUAGAAGGGAGAAGAA [Hedjkheperre-setpenre Nesbanebdjed]	28.7 nM	34.3 nM
AAGAACUGAGGAUAUACAAAAUAAAAGAAAAGAAAGAAAGAACAUGAGGAUCACCCAUGUAGAAGGCAGAAGAA [Sekhemre Khutawy Sobekhotep I]	27.6 nM	19.7 nM
AAGAACUGAGGAUAUACUUUGGGAAAAGAAAAGAUGAUGUUACAUGAGGAUCACCCAUGUAGAAGGCAGAAGAA [Mat - Exclusion 2 - Mod - D153]	27 nM	37 nM
AAGAAGCAAGGAUAUACAUGAGGAUCACCCAUGUAAAAGAAAGAGGGAAAAGAGAAAAGUAGAAGGUGCAAGAA [Ptolemy VI Philometor]	22.6 nM	54.4 nM
AAGAAGCGAGGAUAUACAUGAGGAUCACCCAUGUAAAAGAAAGAGGGAAAAGAGAAAAGUAGAAGGCGCAAGAA [Philip III Arrhidaeus]	84.2 nM	123 nM
AAGAAGGCAGGAUAUACAAAAUAAAAGAAAAGAAAGAAAGAACAUGAGGAUCACCCAUGUAGAAGGGCUAAGAA [Merhotepre Ini]	50.9 nM	39.3 nM
AAGAAGGUAGGAUAUACAUGAGGAUCACCCAUGUAAAAGAAAGAGGGAAAAGAGAAAAGUAGAAGGACCAAGAA [Ankhmakis]	34.3 nM	50.1 nM
AAGAAGUCAGGAUAUACAUGAAAGAAAGAAAAGAAAAGAAAACAUGAGGAUCACCCAUGUAGAAGGGACAAGAA [EteRNA is fun!]	54.5 nM	50.5 nM
AAGAAGUGAGGAUAUACAUGAGGAUCACCCAUGUAAAAGAAAGAGGGAAAAGAGAAAAGUAGAAGGCACAAGAA [Weserkare-meryamun Ptolemy II Philadelphos]	35.6 nM	33.7 nM
AAGAAGUGAGGAUAUCGAAGACAGACGAAAAGUCUGUCAAACGAGAAGGCACAUGAGGAUCACCCAUGUGGAAA [What have we learned so far? 64% 4]	30.5 nM	34.6 nM
AAGAAGUGAGGAUAUGUCUGUGCGAAAAAAAAAAAGUGCAGACAGAAGGCACAUGAGGAUCACCCAUGUGGGAA [Florian 65% 6]	76.6 nM	87.2 nM
AAGAUCAGAGGAUAUACAUAAGGUGAUGGAGACAUCGCCAAACAUGAGGAUCACCCAUGUAGAAGGCUGAUCAA [Mat - Exclusion 2 - JL mod - D62]	36.8 nM	49.7 nM
